Results: the supplement of paper PMC12636428

Tested on: Saccharomyces cerevisiae
Assay: transcriptional activation domain activity (GFP:mCherry ratio, weighted mean of sorted bins, harmonized to initial dataset scale) (arbitrary fluorescence ratio units); higher = stronger transcriptional activation
Details: beta-estradiol 1 µM; induction time 4 h
How it was run: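 Barcoded protein tiles fused to an estradiol-inducible synthetic transcription factor were integrated at the yeast URA3 locus, in diploids carrying a GFP reporter. Cultures were diluted 1:5 into SC with 1 uM beta-estradiol, held 4 hours at 30 °C, sorted into 8 bins by GFP:mCherry ratio, and barcodes sequenced. Tiles under 50 reads were discarded. Activation activity is the read-weighted mean of bin median fluorescence, averaged across barcodes, then linearly mapped onto the initial dataset scale.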

| Sequence | transcriptional activation domain activity |
| --- | --- |
| NGLENAASVITILDKSSNGTFINGEKIGKGQQRLLKDGNEVSFGVCVRSTENN | 24500 |
| RDANQCLELYPDIRILLVRLLEYPELMVITPIRMAIRCGLLYFSHLGSDRPQA | 58800 |
| ILTILYKSNAVFFLEWMVFVAYQIFNLFAWVFNCWGKILPKVGSFFLYVSLVS | 63000 |
| QAAAPAEKPATAAAGEAEKDGAAARGASTRGRGRGRGRGGRGGATAARRPRAD | 46200 |
| KIHLVNIGQVLVLLLHRFLYGIIPLFEITTCAYFPFLVSLWHIQYILFYAVMF | 84900 |
| SLSRIVGRGGAQINQIKEDTEVESLDVNQEGEGDSATVTLKGTKTAVAAAKKA | 21900 |
| MQGEETIASKTNKPRQRRAHTRSRTGCSECRNRRVRCDEQKPQCKNCINSQRI | 24100 |
| VSFFFFLSFFFPPFFFFSLSFLLSFFLSFLLPFPFFLSFFPFFPGCAAPSRSN | 32200 |
| DFTLEQDPDVLDTWFSSGLWPFSILGWPDKTPDLKTFYPATILETGWDILFFW | 54800 |
| DGCIFFALITFALMLRIATAFCMRGPIHAIFLPWSIVCYYYAGSHLLLNLRWY | 46300 |
| SSSSSRVACGQVVKCGSEVVATSNGAYPVQEGDSCSRARRQSTGSVVNRTTRP | 26400 |
| LRELHKSSFTNSLRQWVMSGVYQLDPFVRPYLRAYAIACLRIVFHILPHLTSM | 48200 |
| ETVLKDLKSNQNIDTTVQKLFANCLFYARRIALIHPNLTSIKALLLLMVALEC | 81600 |
| LPDLQWLVKFLVVAAHETGKNIVCRRAPGNLLSGNLVTLVSNVVLQRSPKRSY | 47900 |
| NSTVHNLIELIPLQQLCGFCCFSMRFVVFLDLLSTVVQPVIVGYIVYLIVILT | 60200 |
| MWHWLFYLFFSFFLQFLLFLFSFSSSFNFFYFCFPFLLFSVSFFCFCFWFLFF | 50000 |
| EFVRTSHGRLPAGKRLVKGGYEEDGTPLYHGMAIHEGIKVPGKISHRLYVLQS | 43700 |
| MCRCFFWSFLVFFVFFSLLCLFVSFCVFLCFAFLCFVFFVFCFFCFFCLFCVF | 56600 |
| STTSDGAPGSEVPLKRRPGRPKGSKTKKRKIDTAPVPIAAAGTQPAASSTTAP | 35700 |
| RGGGGGGKRGSRAGSGIAADSKEKGNDGEVKLKDKEKGRSKEKKSGKEGGGAA | 35900 |
| KEVASADTKPADAPAGEAKAPKKEKKEKEKKPAEAAEGGKKKEKAAGGGGKAA | 36100 |

| Sequence | transcriptional activation domain activity |
| --- | --- |
| RGRLPCRYTIWIYSLTRVACLLGVIVCTVGMDVSTSYNCQLWVSSVATLFCVT | 70300 |
| IHRLTFFFFFCFFFFFFCLFSFSVSFFFFLFFFFLFSTSLLARRFLSLFSSVA | 50100 |
| GHFVRVGTTFFTMYAVNIFLSYARYIAAHFRISVIVISRLMLNLRNPVTFEST | 60400 |
| QLLLVHEGCVMDRLAIAGFEGAALARALWFASFLKGVVRQDRIMEGMYYLLAP | 26300 |
| ASASASASRHKKDKDRKKKHKEKDGKSSKHKKHKSSSRRSRSRSRDKDRHGDR | 33300 |
| AHSKKKTCDVCKYPYSFTKVYAQDMPARLPVFLLLRRLAQQGALAMLFAIRAV | 73300 |
| EPSRAGTPAPAPAAGEKKVGEAEGKVAEKAEGEGEGGKGAGEENNGKGKESVK | 19100 |
| VLLFLFVWRWGRRAFWQLRGRGIIGSVVELYVNIRRILYGYFLRAPGVRNKVQ | 44100 |
| YFMVYFIFYRNLFARLRSFDQFALVQLMSSFWVCIWYPFSMTSLCHRVVQYFN | 69300 |
| TECASIPFAKMRALLNGIPVTNLNDRDRMMLFIFKLVLLEVRSKNTLEILSNH | 33400 |
| KLEHEPGPEPKPEAEEKPKKARGRPKKAIPEGGYTPKKARGRPKKVLDPEAEV | 14000 |
| EPAEEEEEEDDDDEDDPEVRRKEELRARMAKMSAGMGGMGGMMNPFAAPVAPG | 62200 |
| FARVLLNGWFRTFHKVVSTAECVAWLVLFLPYAIGVLLVVRCVLGFHDIPKPK | 45500 |
| SLSFTPPHSNPPSPSFLLPFPLPFLLPFPPLSFPFPPPFAFPFTPFPPFPFSP | 38700 |
| ETAPATEEKPVEETKPAEEAAKTEEEKKEDEAKPIEEGHLNHKAQGLSFPKNL | 55000 |
| AAQAPANDGFSEVQHNRGGRGRGGQDQGEGRGGYRGRGRGGRGGGEFRGRGRG | 55800 |
| AQPKTEAPKKVAKPRAKKGEAAEGEVKKGGRGKKRSAEGEEKAEEKAEDKPAE | 30600 |
| HLSLSPSLIPTLSFFLLLLYPLVFFIFIIYRGPLFFLFDLTHLICFIYILFIL | 27400 |
| MSPSGAVPSTAQVVPGACVNIVLKADQRTGRQVSGTVRDVLTRGDHHRGIKVR | 41300 |
| PSPVLCFRQLCFLVYLIFFNFLLLFCLFAKAEGGIPSCPLQPLDSLYFSLQGF | 49400 |
| MHFFSFFFLCFYFYFLSSLLGSMDYTALYFPFFFCSNYRRCYMCFLVEPFFFL | 78500 |

| Sequence | transcriptional activation domain activity |
| --- | --- |
| MTGRHLWGIGVLFLPLLFFLLDFPFFSFSFLLMCLCEILSIFFWLHFSLGREG | 44900 |
| TPANSSSTMALVPKEEQKEEEEKSTPADSGSTTASVPKEEEKEEEKSTPADSG | 44400 |
| DSSEVQRKKRRDSRKSKKESKSSSRRKDRSKDRSGRSKQRESKKKDRRRARSE | < 6570 |
| IENFLSPSFLEFIPHLANEYGFDYELVTYKWPTWLIHQKEKQRLIWGYKILFL | 56800 |
| FVYELWRHGGLGVYSFRLTELLVKVVLEAECKEIMDWWLEKQGYILHDLHRKA | 50300 |
| FDETIIQLRKTVLSCSTCCSIALKWFAEHEYALVGLLLRCLHMKVRSQIRAFL | 44000 |
| TKPAPKKAGGRPKKVVAEPEPAAEPSESEEPKLAPKRAGGRPKKVVAPVAEPE | 19400 |
| QTRQDEDHWQRVRELENQSSLYYLPIHEETPFFIDLIPNGFYLETKRSADNLF | 92000 |
| EESLGAGMAKLNLDSATPSSHKSEPIFIAIDCEAYEEGAHAVTEVGVATLDTR | 56000 |
| KREQREKEKEAEREREREKAARAARRESRREERTRREDEKERGARHEERTSRY | 28000 |
| RPLSEASRDLALPSVTRVWCDEKDNIFYMQDVNFVTDITKVLLVSVLSTVARC | 47600 |
| EALMRRFISKGGFMTSRINWAIQSSGVDYLHLLIVSMEYLIRRFNLNARLAIT | 49400 |
| KVDNGGKVDNSGKVDNGRKVDSRKIDDGRKVDDGRNVDNRGRVDEGGGVVKGG | 19500 |
| AGGAFETGGKRRKGKEKVRLDYNAIAGGQVALVKDDLELLIVHLLISRYLGEA | 19000 |
| VAGVKSDWDASSDEEEKPVPVAERVNGASSQKSAASKSPSKVTPMPSKTAHLV | 21300 |
| FLQNSSDSVDIRLALLLTPLENTKGVSHVDQLNKPTHTVVVGIVHLCNPKSRA | 51600 |
| PAPKKAAAPAKKDALKAKKEESSSSSSDSEDEKPAPKKAAASAAKKVVAKAQK | 21000 |
| EAEAGADGSEGGEDDGREKEEVEEEGGEEEGGEEEGREDDDTKAEAEAEELSE | 26600 |
| AWCHLSVVGRASNLVVYLLIRARKLQLDLGLGFYQRSLLMLCEKLIVVDIFSL | 63400 |
